Results: the RNAGym collection of RNA variant scans (doi:10.1093/nar/gkz1192)

B1: CPEB3 Ribozyme (parent)
chain: UAACAGGGGGCCACAGCAGAAGCGUUCACGUCGCAGCCCCUGUCAGAUUCUGGUGAAUCUGCGAAUUCUGCUGUAUAUCUC

Variants of: B1
Assay: self-cleavage, relative activity (ratio to wild type); higher = more cleavage; in vitro, sequencing
Method in brief: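 Libraries of CPEB3 self-cleaving ribozyme mutants came from rounds of error-prone PCR and carried barcodes, which DNA sequencing matched to variants. In vitro transcription used T7 RNA polymerase at 37°C for 5 hours, with a further 15 min in DNase I before EDTA stopped the reaction; the ribozymes cleaved during both steps. The RNA was reverse transcribed with template switching and sequenced on Illumina. Relative activity is the cleaved/total read fraction of a variant divided by that of the unmutated ribozyme, averaged over three batches with at least 5 reads.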

Going from A13C U25A to A13C U25C, the self-cleavage falls from 0.34 to 0.31.

Going from A13G A45C to A13G A45U, the self-cleavage rises from 0.34 to 0.4.

First: A13G A45G
Second: A13U A65G
The self-cleavage of the first is higher: 0.67 for the first, 0.61 for the second.

First: A13U A65C
Second: A13U C14U
The self-cleavage of the first is lower: 0.17 for the first, 1.26 for the second.

First: A13G C44U
Second: A13G C44A
The self-cleavage of the first is higher: 0.32 for the first, 0.24 for the second.

Compared with C12U U58C, C12U U58A is lower in self-cleavage: 1.03 for the first, 0.9 for the second.

First: A13C U78A
Second: A13C U78C
The self-cleavage of the first is lower: 1 for the first, 1.02 for the second.

Going from A13G C59U to A13G C59G, the self-cleavage falls from 0.8 to 0.24.

First: C12U U69A
Second: C12U U69C
The self-cleavage of the first is lower: 0.95 for the first, 0.96 for the second.

Compared with C12U U69G, C12U C71U is lower in self-cleavage: 1.18 for the first, 0.58 for the second.

Going from A13G G70C to A13G G70A, the self-cleavage falls from 0.45 to 0.26.

Going from A13G G16A to C12U U76C, the self-cleavage rises from 0.24 to 1.31.

Going from A13C U58C to A13U A28C, the self-cleavage rises from 0.45 to 0.64.

Compared with A13U A28U, A13U A28G is lower in self-cleavage: 1.01 for the first, 0.72 for the second.

First: A13G A28C
Second: A13G A28G
The self-cleavage of the first is higher: 0.43 for the first, 0.39 for the second.

Going from A13G A28U to C12U U31A, the self-cleavage rises from 0.54 to 1.11.

First: C12U U31G
Second: C12U U31C
The self-cleavage of the first is lower: 0.91 for the first, 1.28 for the second.

Compared with A13G C39A, A13G C39U is higher in self-cleavage: 0.28 for the first, 1 for the second.

Compared with A13G C39G, A13G U58G is lower in self-cleavage: 0.27 for the first, 0.2 for the second.

Compared with A13G U58C, A13U A15U is higher in self-cleavage: 0.46 for the first, 1.05 for the second.

First: A13U A15G
Second: A13U A15C
The self-cleavage of the first is lower: 0.69 for the first, 0.88 for the second.

A13C A65G and A13G U69C are the same in self-cleavage: 0.32 for the first, 0.32 for the second.

Going from A13G U69A to A13G U69G, the self-cleavage rises from 0.38 to 0.39.

Compared with C12U G46A, A13G G36U is lower in self-cleavage: 0.68 for the first, 0.2 for the second.

First: A13G G36A
Second: A13C C14G
The self-cleavage of the first is lower: 0.35 for the first, 0.56 for the second.

First: C12U U43A
Second: C12U U43C
The self-cleavage of the first is higher: 1.24 for the first, 1.11 for the second.

Going from A13C C38A to A13C C38U, the self-cleavage rises from 0.33 to 0.93.

First: C12U G63C
Second: C12U G63A
The self-cleavage of the first is lower: 1.26 for the first, 1.39 for the second.

Going from A13G C71A to A13G C71G, the self-cleavage falls from 0.25 to 0.12.

Compared with A13G C71U, A13G U60C is lower in self-cleavage: 0.39 for the first, 0.38 for the second.

Going from A13G U60G to A13G U60A, the self-cleavage rises from 0.32 to 0.43.

First: A13U A35U
Second: A13U A35C
The self-cleavage of the first is higher: 0.75 for the first, 0.69 for the second.

Going from A13U A35G to A13G G73C, the self-cleavage falls from 1.3 to 1.12.

First: A13G G73A
Second: A13C A20G
The self-cleavage of the first is higher: 1.27 for the first, 0.72 for the second.

First: A13C C44A
Second: A13C C44U
The self-cleavage of the first is lower: 0.42 for the first, 0.59 for the second.

Going from A13C G22A to A13G A18U, the self-cleavage rises from 0.19 to 0.27.

Going from A13G A18G to A13G G52U, the self-cleavage rises from 0.39 to 1.14.

First: A13G G52A
Second: A13U A77G
The self-cleavage of the first is higher: 1.04 for the first, 1.03 for the second.

Compared with A13U A77U, A13C A47G is lower in self-cleavage: 1.22 for the first, 1.05 for the second.

Compared with A13C A47C, A13C C29G is lower in self-cleavage: 0.34 for the first, 0.3 for the second.

Compared with A13G A64U, A13G A64C is higher in self-cleavage: 0.32 for the first, 0.46 for the second.

Compared with A13G A64G, C12U U49C is higher in self-cleavage: 0.76 for the first, 1.01 for the second.

Compared with C12U U48C, C12U U48G is lower in self-cleavage: 1.18 for the first, 0.94 for the second.

Going from C12U C40U to A13C U26A, the self-cleavage falls from 1.12 to 0.61.

Compared with A13C U26C, A13G A75U is higher in self-cleavage: 0.51 for the first, 0.99 for the second.

A13G A75C and A13G A75G are the same in self-cleavage: 1.03 for the first, 1.03 for the second.

Going from A13C C68U to A13G U54C, the self-cleavage falls from 1.07 to 0.92.

First: A13G U54G
Second: A13G U54A
The self-cleavage of the first is lower: 0.76 for the first, 1.07 for the second.

Compared with A13C U48C, C12U G16U is higher in self-cleavage: 0.68 for the first, 0.75 for the second.

Compared with C12U G16C, A13G U48A is lower in self-cleavage: 0.79 for the first, 0.31 for the second.

Compared with A13G U48C, A13C G36C is lower in self-cleavage: 0.44 for the first, 0.35 for the second.

First: A13C G36A
Second: A13G G55A
The self-cleavage of the first is lower: 0.26 for the first, 0.79 for the second.

Compared with A13G G55C, A13C A64U is higher in self-cleavage: 0.23 for the first, 0.4 for the second.

Going from A13C A64G to A13U A21G, the self-cleavage falls from 0.93 to 0.48.

First: A13U A21C
Second: A13U A21U
The self-cleavage of the first is higher: 0.37 for the first, 0.35 for the second.

Compared with C12U G70A, A13C C71U is lower in self-cleavage: 1.06 for the first, 0.33 for the second.

Compared with A13C G46C, A13G C14U is higher in self-cleavage: 0.18 for the first, 0.78 for the second.

First: A13G C14A
Second: A13C A28G
The self-cleavage of the first is higher: 0.88 for the first, 0.62 for the second.

Going from A13C A28U to A13G C37U, the self-cleavage falls from 0.76 to 0.53.

First: A13G C37A
Second: A13G A21U
The self-cleavage of the first is lower: 0.18 for the first, 0.35 for the second.

Compared with A13G A21G, A13C A45U is lower in self-cleavage: 0.5 for the first, 0.44 for the second.

Compared with A13G C79U, A13G C62U is lower in self-cleavage: 1.14 for the first, 0.23 for the second.

Going from A13G C62A to A13G A47C, the self-cleavage rises from 0.18 to 0.57.

Compared with A13G A47U, A13G A47G is higher in self-cleavage: 0.38 for the first, 0.86 for the second.

First: C12U C81U
Second: A13G G33U
The self-cleavage of the first is higher: 1.22 for the first, 0.24 for the second.

Going from A13G G33A to A13G G33C, the self-cleavage falls from 0.21 to 0.17.

Compared with A13G G24A, A13C C32A is higher in self-cleavage: 0.27 for the first, 0.29 for the second.

Going from A13G C27U to A13G G22C, the self-cleavage falls from 0.26 to 0.12.

Compared with A13G G22A, C12U U26A is higher in self-cleavage: 0.19 for the first, 1.19 for the second.

Going from C12U U26C to A13C C50A, the self-cleavage rises from 0.84 to 0.87.

Compared with A13G C17G, A13G C17U is higher in self-cleavage: 0.13 for the first, 0.51 for the second.

First: A13G C17A
Second: A13G U26G
The self-cleavage of the first is higher: 0.38 for the first, 0.21 for the second.

Going from A13G U26A to A13G U26C, the self-cleavage falls from 0.85 to 0.38.

Compared with A13G A77G, A13G A77U is higher in self-cleavage: 0.69 for the first, 0.92 for the second.

Going from A13G A77C to A13G A57C, the self-cleavage falls from 0.62 to 0.33.

First: A13G A57G
Second: A13G A57U
The self-cleavage of the first is higher: 0.72 for the first, 0.45 for the second.

Going from A13C G30U to A13C G30A, the self-cleavage rises from 0.12 to 0.25.

Compared with A13U A56G, A13U A56U is lower in self-cleavage: 1.07 for the first, 0.93 for the second.

First: C12U U51C
Second: C12U U51A
The self-cleavage of the first is lower: 1.25 for the first, 1.26 for the second.

First: A13U A75G
Second: A13U A75U
The self-cleavage of the first is lower: 1.25 for the first, 1.28 for the second.

Going from A13G C40A to A13G C40U, the self-cleavage rises from 0.21 to 0.76.

Going from A13G C40G to A13C G63U, the self-cleavage rises from 0.23 to 0.97.

First: C12U U54G
Second: C12U U54C
The self-cleavage of the first is lower: 1.01 for the first, 1.27 for the second.

In the case of A13C A21U, the self-cleavage is reported as 0.49.
